According to US7838288B2, “Modulators of odorant receptors” (Duke University, priority 2004, dated 2010):

System: OR-S6/S79
Assay: CRE-luciferase reporter gene assay, OR-S6/S79
Format: cell-based, mouse
Details: 293T cells expressing RTP1 variant
Procedure: Four ORs (S6/79, S18, S46 and S50) previously assayed using other techniques (see, e.g., Malnic, B., et al. (1999) Cell 96, 713-723; herein incorporated by reference in its entirety) were tested against an assay panel of aliphatic alcohols, aldehydes and acids and some other odorants. Additionally, five “orphan” class I ORs (MOR23-1, MOR31-4, MOR31-6, MOR32-5 and MOR32-11) whose cognate ligands were unknown were tested. At a suprathreshold concentration of 100 uM, all these ORs were odorant selective, responding to only a small subset of the odorants tested (see FIG. 11A). This specificity was retained at lower, more physiologically relevant concentrations. Many of these ORs responded to odorants present in micromolar concentrations. The cell-surface expression of these ORs by living-cell immunofluorescence were evaluated. Some ORs (S18, MOR31-4, MOR31-6 and MOR32-5) were strongly expressed while other ORs (S6, S50, MOR23-1, MOR32-11) were weakly expressed (see FIG. 12). The present invention is not limited to a particular mechanism. Indeed, an understanding of the mechanism is not necessary to practice the present invention. […] Finally, two additional orphan class II ORs, MOR203-1 and olfr62, were tested against a panel of 139 odorants. […] Olfr62 responded to coumarine and piperonal (see FIG. 11C). […] When parental 293T cells for these ORs were used in this luciferase assay, little or no response to the odorants was observed. The present invention is not limited to a particular mechanism. Indeed, an understanding of the mechanism is not necessary to practice the present invention.
An expression system has been established that permits rapid identification of ligands for ORs. This system was tested with twelve ORs. Four of the tested ORs (S6/S79, S18, S46, and S50) were expressed in single olfactory neurons responding to aliphatic odorants (see, e.g., Malnic, B., et al. (1999) Cell 96, 713-723; herein incorporated by reference in its entirety). The response profiles of OR-S50, but not that of OR-S18 agreed with the previous report (see, e.g., Malnic, B., et al. (1999) Cell 96, 713-723; herein incorporated by reference in its entirety). […] In experiments conducted during the course of the present invention, OR-S6/S79 responded to nonanedioic acid but not to heptanoic acid or octanoic acid. The present invention is not limited to a particular mechanism. […] When multiple single olfactory neurons that expressed the same OR were recorded against the same set of odorants using calcium imaging, their response profiles were similar but different (see, e.g., Bozza, T., et al. (2002) J Neurosci 22, 3033-3043; herein incorporated by reference in its entirety).
Dual-Glo system (Promega) for luciferase assay was used. […] Luminescence was measured using Wallac Victor 1420 (Perkin-Elmer). […]

S6 activity as indicated by luciferase expression: Increased enhancement
B1: RTP1-A1: RTP1 variant from deleting portions of RTP1-A; murine SEQ ID NO: 46, human SEQ ID NO: 47 (protein, listed as Mus musculus)
chain: MCKSVTTGEWKKVFYEKMEEVKPADSWDFIIDPNLKHNVLAPGWKQYLELHASGRFHCSWCWHTWQSPHVVILFHMYLDKAQRAGSVRMRVFKQLCYECGTARLDESSMLEENIESLVDNLITSLREQCYGERGGHYRIHVASRQDNRRHRGEFCEACQEGIVHWKPSEKLLEEEATTYTFSRAPSPTKPQAETGSGCNFCSIPWCLFWATVLMLIIYLQFSFRTSV
